Results taken from publication PMC9293896.
Changes are numbered by the printed parent chain. Values belong to the substance of their own block, whether it stands above or below them.

Assays:
[1] = biological target: T1, truncated V1AR (residues 1-378, T378K) G337A, N-terminal SNAP-tag (human) (UniProt P37288); experiment: AlphaScreen or HTRF; whole-cell saturation binding; SNAP-tagged receptor on transfected HEK293T/17 cells labelled with SNAP-Lumi4-Tb; concentration range of HiLyte Fluor 488-Orn8 oxytocin, 1 h at room temperature in 20 mM Hepes pH 7.5, 100 mM KCl, 3 mM MgCl2, 0.05% BSA; nonspecific binding with 1000-fold excess of unlabelled oxytocin; one-site saturation fit
T1 sequence: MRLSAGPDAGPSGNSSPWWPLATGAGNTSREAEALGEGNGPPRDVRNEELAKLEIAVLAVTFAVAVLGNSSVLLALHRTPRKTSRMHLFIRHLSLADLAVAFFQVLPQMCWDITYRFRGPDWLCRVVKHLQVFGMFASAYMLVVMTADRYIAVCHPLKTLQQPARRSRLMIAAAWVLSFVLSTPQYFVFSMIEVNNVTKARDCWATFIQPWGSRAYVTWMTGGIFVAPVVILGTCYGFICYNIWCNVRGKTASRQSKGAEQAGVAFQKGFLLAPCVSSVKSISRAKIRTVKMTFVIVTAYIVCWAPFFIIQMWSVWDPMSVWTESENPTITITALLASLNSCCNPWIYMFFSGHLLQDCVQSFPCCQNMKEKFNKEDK

[2] = biological target: OTR A318G, N-terminal SNAP-tag (human) (UniProt P30559); experiment: as above
[3] = biological target: T2, truncated V1AR (residues 1-378 with C-terminal mutation T378K), N-terminal SNAP-tag (human) (UniProt P37288); experiment: as above
T2 sequence: T1 sequence with A337G

[4] = biological target: OTR-D153Y, N-terminal SNAP-tag (human) (UniProt P30559); experiment: as above
[5] = biological target: wild-type human oxytocin receptor, full length, N-terminal SNAP-tag (human) (UniProt P30559); experiment: as above
[6] = biological target: T1, truncated V1AR (residues 1-378, T378K) G337A, N-terminal SNAP-tag (human)
[7] = biological target: OTR W188A, N-terminal SNAP-tag (human) (UniProt P30559)
[8] = biological target: OTR A318G, N-terminal SNAP-tag (human) (UniProt P30559)
[9] = biological target: T2, truncated V1AR (residues 1-378 with C-terminal mutation T378K), N-terminal SNAP-tag (human)
[10] = biological target: OTR F292A, N-terminal SNAP-tag (human) (UniProt P30559)
[11] = biological target: OTR Q295A, N-terminal SNAP-tag (human) (UniProt P30559)
[12] = biological target: OTR Q171A, N-terminal SNAP-tag (human) (UniProt P30559)
[13] = biological target: OTR-D153Y, N-terminal SNAP-tag (human) (UniProt P30559)
[14] = biological target: OTR Q119A, N-terminal SNAP-tag (human) (UniProt P30559)
[15] = biological target: OTR K116A, N-terminal SNAP-tag (human) (UniProt P30559)
[16] = biological target: OTR I201A, N-terminal SNAP-tag (human) (UniProt P30559)
[17] = biological target: OTR F175A, N-terminal SNAP-tag (human) (UniProt P30559)
[18] = biological target: OTR Q171N, N-terminal SNAP-tag (human) (UniProt P30559)
[19] = biological target: wild-type human oxytocin receptor, full length, N-terminal SNAP-tag (human) (UniProt P30559)
[20] = biological target: OTR Q96A, N-terminal SNAP-tag (human) (UniProt P30559)
[21] = biological target: OTR Q92A, N-terminal SNAP-tag (human) (UniProt P30559)
[22] = biological target: OTR F291A, N-terminal SNAP-tag (human) (UniProt P30559)
[23] = biological target: OTR L316A, N-terminal SNAP-tag (human) (UniProt P30559)

oxytocin, sequence (P01178 whole entry, looked up, the tested form may be a part): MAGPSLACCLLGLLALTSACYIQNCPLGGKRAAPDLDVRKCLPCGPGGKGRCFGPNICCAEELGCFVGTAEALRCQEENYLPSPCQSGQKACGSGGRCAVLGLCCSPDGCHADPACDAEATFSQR

Substance: HiLyte Fluor 488-Orn^8 oxytocin (from UniProt P01178 20-28) (peptide)
Kd [1]: 20.9 nM
Kd [2]: 0.9 nM
Kd [3]: 9.3 nM
Kd [4]: 6.4 nM
Kd [5]: 1.4 nM

OT-induced IP1 accumulation (HTRF IP-One) in transfected HEK293T cells, EC50 [6]: 250 nM
OT-induced IP1 accumulation (HTRF IP-One) in transfected HEK293T cells, EC50 [7]: 156 nM
OT-induced IP1 accumulation (HTRF IP-One) in transfected HEK293T cells, EC50 [8]: 4.6 nM
OT-induced IP1 accumulation (HTRF IP-One) in transfected HEK293T cells, EC50 [9]: 158 nM
OT-induced IP1 accumulation (HTRF IP-One) in transfected HEK293T cells, EC50 [10]: 6.1 nM
OT-induced IP1 accumulation (HTRF IP-One) in transfected HEK293T cells, EC50 [11]: 51.3 nM
OT-induced IP1 accumulation (HTRF IP-One) in transfected HEK293T cells, EC50 [12]: 992 nM
OT-induced IP1 accumulation (HTRF IP-One) in transfected HEK293T cells, EC50 [13]: 42.9 nM
OT-induced IP1 accumulation (HTRF IP-One) in transfected HEK293T cells, EC50 [14]: 444 nM
OT-induced IP1 accumulation (HTRF IP-One) in transfected HEK293T cells, EC50 [15]: 6.1 nM
OT-induced IP1 accumulation (HTRF IP-One) in transfected HEK293T cells, EC50 [16]: 89.5 nM
OT-induced IP1 accumulation (HTRF IP-One) in transfected HEK293T cells, EC50 [17]: 3480 nM
OT-induced IP1 accumulation (HTRF IP-One) in transfected HEK293T cells, EC50 [18]: 39.1 nM
OT-induced IP1 accumulation (HTRF IP-One) in transfected HEK293T cells, EC50 [19]: 8.4 nM
OT-induced IP1 accumulation (HTRF IP-One) in transfected HEK293T cells, EC50 [20]: 1540 nM
OT-induced IP1 accumulation (HTRF IP-One) in transfected HEK293T cells, EC50 [21]: 222 nM
OT-induced IP1 accumulation (HTRF IP-One) in transfected HEK293T cells, EC50 [22]: 542 nM
OT-induced IP1 accumulation (HTRF IP-One) in transfected HEK293T cells, EC50 [23]: 21.9 nM
Substance: oxytocin (from UniProt P01178 20-28) (peptide)
